Holding throughout (experiment): ITC
(In general: ITC needs no label: the signal is the heat of the interaction.)

The target of one assay is HTLV3 Tax (Human T-cell leukemia virus 3).
A further assay deals with AdV E4 ORF1 (Human adenovirus).
The target of the next assay is T1, ERBB4 (Homo sapiens).
T1 chain: HRNTVV

In the next assay the target is T2, HTLV1 Tax (Human T-cell leukemia virus 1).
T2 chain: FRETEV

The target in the next assay is T3, Erbin PDZ binder.
T3 chain: TGWETWV

Here are results for three molecules from paper PMC8393326 (2021).

B1: PSD95-PDZ2 155-249 (protein)
chain: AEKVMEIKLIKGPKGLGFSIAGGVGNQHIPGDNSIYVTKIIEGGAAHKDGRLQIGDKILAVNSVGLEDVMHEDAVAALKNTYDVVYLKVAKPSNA
With B1, the Kd (commonly the equilibrium constant for the complex coming apart) with HTLV3 Tax was 20 µM; with AdV E4 ORF1, 11.5 µM; in the assay with ERBB4, 13.9 µM; in the assay with HTLV1 Tax it was 1.5 µM; with Erbin PDZ binder, 5.7 µM.

B2: PSD95-PDZ3 302-415 (protein)
chain: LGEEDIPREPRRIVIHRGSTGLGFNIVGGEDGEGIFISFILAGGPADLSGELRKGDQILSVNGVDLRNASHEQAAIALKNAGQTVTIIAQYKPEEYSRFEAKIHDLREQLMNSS
For the molecule B2, the results for the Kd in the assay with HTLV3 Tax, in the assay with ERBB4 and with HTLV1 Tax were 43 µM, 41.6 µM and 3.8 µM, respectively.

B3: Erbin-PDZ PDZ (protein)
chain: AKQEIRVRVEKDPELGFSISGGVGGRGNPFRPDDDGIFVTRVQPEGPASKLLQPGDKIIQANGYSFINIEHGQAVSLLKTFQNTVELIIVREVSS
Regarding B3, the Kd amounted to 23 µM in the assay with HTLV3 Tax, 7.8 µM with HTLV1 Tax and 0.24 µM in the assay with Erbin PDZ binder.
